Patent US20170130210A1
Values joined by “and” are separate entries in the source; they are usually repeats but may differ in a detail not shown here. Equal values may be shown once.

Target: Pfk-I with the C-terminal degradation tag DAS+4, expressed from the pfkA locus of E. coli strain IB1863 (E. coli) (UniProt P0A796)
Experiment: cell-based or functional assay

Sequence of Pfk-I with the C-terminal degradation tag DAS+4, expressed from the pfkA locus of E. coli strain IB1863 (E. coli) (P0A796 1-320, tags or fused parts left off): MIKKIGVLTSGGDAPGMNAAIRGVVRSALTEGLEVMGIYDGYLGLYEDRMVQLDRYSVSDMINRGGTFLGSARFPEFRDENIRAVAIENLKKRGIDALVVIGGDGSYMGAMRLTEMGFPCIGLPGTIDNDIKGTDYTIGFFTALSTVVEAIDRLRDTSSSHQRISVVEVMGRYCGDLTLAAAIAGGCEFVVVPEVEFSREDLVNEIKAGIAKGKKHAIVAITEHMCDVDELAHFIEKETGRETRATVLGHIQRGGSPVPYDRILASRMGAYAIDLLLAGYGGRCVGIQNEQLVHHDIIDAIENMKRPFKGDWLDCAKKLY

For “SspB, native E. coli adaptor protein (from UniProt P0AFZ3 1-165)”, the Pfk activity in crude lysate of IB1863 after aTc induction of SspB, relative to wild-type (% of wild-type) was 35 and 18.
